Assay results as given in the nanobody polyreactivity screen of Harvey et al. (2022).

Experiment: yeast display, Sf9 membrane polyspecificity reagent, FACS + sequencing; frameworks hold sequencing errors
Method in brief: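 After 36–48 hours of galactose induction, yeast (Saccharomyces cerevisiae BJ5465) displaying a synthetic nanobody library were stained at 4 °C for 1 hour with 10% biotinylated, detergent-solubilized Sf9 membrane reagent. Streptavidin microbeads enriched the stained cells before FACS sorting into low and high (top ~1%) gates on anti-HA and streptavidin fluorescence. Each clone's polyreactivity label reflects its gate of origin.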

| Sequence | polyreactivity (PSR sort gate) |
| --- | --- |
| QVQLVDSGGGLVQAGGSLRLSCAASGSTIPIYAMVWYRQAPGKERELVARITWSGGSTYYADSVKGRFTISRDNAKNTVYLQMNSLKPEDTAVYYCAAVVITTPYDRYYYWGQGTQVTVSS | high polyreactivity |
| QVQLVESGGGLVQAGGSLRLSCAASGRIFSSYAMGWYRKAPGKERELVAAISGSGGRTYYADSVKGRFTISRDNAKNTVYLQMNSLKPEDTAVYYCNARRRSPYSTGVAYDYWGQVTQVTVSS | high polyreactivity |
| QVQLVESGGGLVQAGGRLRLSCAASGGLLDIYVMGWYRQAPGKERELVAAITTRGGSTFYADSVKGRFTISRDNAKNTVYLQMNSLIPEDTAVYYCNKRLLVSRSSAQAYGYWGQGTQVTVSS | high polyreactivity |
| QVQLVESVGGLVQAGGSLRLSCAASGFTFQYYALGWYRQAPGKERELVAAISWTGGRTYYADSVKGRFTISRDNAKNTVYLQMNSLKPEDTAVYYCNKVLYYYNSGEYDYWGQGTQVTVSS | high polyreactivity |
| QVQLVESGGGLVQAGGSLRISCAASGNIFDIYAMGWYRQAPGKERELVAAITSGVRTYYADSVKGRFTISRDNAKNTVYLQMNSLKPEDTSVYYCNAVWRRSHAYGYWGQGTQVTVSS | low polyreactivity |
| QVQLVESGGGLVQAGGSLRISCAPSGITFKDYAMGWYRQAPGKERELVAVISYSGGSTYYADTVKGRFTISRDNAKNTVYLQMNSLKPEDTAVYYCAARVGPEYDWGQGTQVTVSS | low polyreactivity |
| QDQLVESGGGLVQAGGSLRLSCAASGSIFTYNAMGWYRPAPGKERELVAAINTSGSTNYADSVKGRFTISRDNAKNTVYLQKYSLKPEDTAVYYCAAGIVVTVYDYWRQGTQVTVSS | low polyreactivity |
| QVQLVESGGGLVQAGGSLRLSCAASGSTFETNAMGWYRQAPGKERELVAAISVSGGDTYYADSVKGRFTISRDNAKNTVYLQMNSLKPEDTAVYYCAAAERGYIFPDRMRYDYWGQGTQVTVSS | low polyreactivity |
| QVQLVESGGGLVQAGGSLRLSCAASGRIRPRNAMGWYRQAPGKERELVAGISSDGSTNYADSVKGRFTISRDNAKNTVYLQMNSLKQEDTAVYYCAADGVYDPNLYGYWGQGTQLTVSS | low polyreactivity |
| QVQLVESGGGLVQAGGSLRLSCAASGRIFEGYAMGWYRPAPGKQRELVAAISKSGGRTNYADSVKGRFTISRDNAKNTVYLQMNSLKPEDSAVYYCNAGIKYWGSDFFYWGQVTQVTVSS | high polyreactivity |
| QVQLVESGGGLVQAGGSLRISCAASGITFRRYGMGWYRQAPGKERELVATITSSVGSRTYYADSVKGRFTISRDNAKNTVYLQMNSLKPEDTAVYYCAADHRVYDSEYWGQGTQVTVSS | low polyreactivity |
| RVQLVESGGGLVQAGGSLRLSCAASGRIFSYKAMGWYRQAPGKERELVAAITFSGGGTYYADSVKGRFTISRDNAKNPVYLQMNSLKPEDTAVYYCNKVSYGYSSYGYWGQGTQVTVSS | low polyreactivity |
| QVQLVESGGGLVQAGGSLRLSCAASGFIVWVYAMGWYRQAPGKERELVAAITSGGGSTYYADSVKGRFTISRDNAKNTVYLQMNSLKPEHTAVYYCNAVSWEGYDFDYWGQGTQVTVSS | high polyreactivity |
| QVQLVESGGGLVQAGGSLRLSCAASGRIFSAYAMGLYRQAPGKERELVAAITSVGSTKYADSVKGRFTISRDNAKNTVYLQMNSLIPEDTAVYYCAAEYTRSFYIYYRFGYWGQGTQVTVSS | high polyreactivity |
| QVQLVESGGGLVQAGGSLRLSCAASGSIFDDYAMGWYRQAPGKERELVATITSGDTTNYADSVKGRFTISRDNAKNTVYLQMNSLKPEDTAVYYCAADYLTSRSRTFDYWGQGTQVTVSS | low polyreactivity |
| QVQLVESGGGLVQAGGSLRLSCAASGRIFRWYTMGWYRQAPGKEREFVAAITWSDTSTSYADSVKGPFTISRDNAKNTVYLQMNSLKPEDTAVYYCAAPTHLHGHGNQNEFYYWGQGTQVTVSS | low polyreactivity |
| QVQLVESGGGLVQAGGSLRLSCAASGITLYYNAMGWYRQAPGKESELVAAITWSGSRTYYADSVKGRFTISRDNAKNTVYLQMNSLKPEDTAVSYCAADVDFWNTVEDMDYWGQGNQVTVSS | low polyreactivity |
| QVQLVESGGGLVQAGGSLRLSCAASGIIFKLYAMGWYRQAPGKEREFVATITKTGGRTYYEDSVKGRFTISRDNAKNTVYLQMNSLKPEDTAVYYCAARRVNGKMYYWGQGTQVTVSS | high polyreactivity |
| QVQLVESGGGIVQAGGSLRLSCAASGSIFYAYAMGWYRQAPGKERELVAAINRGDSTTYADSVKGRITISRDNAKNTVYLQMNSLKPEDTAVYYCAKSRPSRKYYAGVTGQGDYWGQGTQVTVSS | low polyreactivity |
| QVQLVESGGGLVQAGGSLRLSCAASGSIFKPYAMGWYRQAPGKERELVAAISSSGGSTYYADSVKGRFTISRDNAKNTVYFQMNSLKPEDTAVYYCNADWYYAGYGYWGQGTQVTVSS | low polyreactivity |
| QVQLQGSGGGLVQAAGSLRLSCAASGYIFQNVPMGWNRQAPGKERELVAGIDNGTSTNYADSVNGRFTISRDNAKKTVYLQMNSLKPEDTAVYYCAAAGQADDTLGYWGQGTQVTVSR | low polyreactivity |
